From the supplement of paper PMC10567573

B1: RTN1 (parent)
chain: VVAYLALAALSATISFRIYKSVLQ

Variants of: B1
Assay: protein stability index of a GFP-peptide fusion (GPS, HEK-293T) (PSI 1-6); higher = more stable
Conditions: c terminus: a fixed tail appended
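Also: lentivirally expressed fusions sorted by FACS into six bins by GFP to DsRed ratio, PSI derived from sequencing read proportions per bin multiplied by bin number.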

Row | Variant | protein stability index
1 | VVAYLALAALSATISFRICKSVLQ [Y19C] | 2.46
2 | VVAYLALAALSATISFRIEKSVLQ [Y19E] | 4.55
3 | VVAYLALAALSATISFRIAKSVLQ [Y19A] | 2.51
4 | VVAYLALAALSATISFRIFKSVLQ [Y19F] | 1.46
5 | VVAYLALAALSATISFKIYKSVLQ [R17K] | 2.03
6 | VVAYLALAALSATISFHIYKSVLQ [R17H] | 2.7
7 | VVAYLALAALSATISFYIYKSVLQ [R17Y] | 3.59
8 | VVAYLALAALSATISFPIYKSVLQ [R17P] | 2.35
9 | VVAYLALAALSATISFDIYKSVLQ [R17D] | 2.83
10 | VVAYLALAALSATISFNIYKSVLQ [R17N] | 4.14
11 | VVAYLALAALSATISFIIYKSVLQ [R17I] | 2.21
12 | VVAYLALAALSATISFMIYKSVLQ [R17M] | 2.83
13 | VVAYLALAALSATISFFIYKSVLQ [R17F] | 1.94
14 | VVAYLALAALMATISFRIYKSVLQ [S11M] | 2.45
15 | VVAYLALAALVATISFRIYKSVLQ [S11V] | 1.41
16 | VVAYLALAALYATISFRIYKSVLQ [S11Y] | 2.33
17 | VVAYLALAALRATISFRIYKSVLQ [S11R] | 2.44
18 | VVAYLALAALNATISFRIYKSVLQ [S11N] | 3.04
19 | VVAYLALAALPATISFRIYKSVLQ [S11P] | 2.49
20 | VVAYLALAALTATISFRIYKSVLQ [S11T] | 2.81
21 | VVAYLALAALKATISFRIYKSVLQ [S11K] | 2.4
22 | VVAYLALAALWATISFRIYKSVLQ [S11W] | 2.55
23 | VVAYLALAALSATISFRVYKSVLQ [I18V] | 4.01
24 | VVAYLALAALSATISFRLYKSVLQ [I18L] | 1.99

Row | Variant | protein stability index
25 | VVAYLALAALSATISFRRYKSVLQ [I18R] | 2.8
26 | VVAYLALAALSATISFRFYKSVLQ [I18F] | 2.06
27 | VVAYLALAALSATISFRNYKSVLQ [I18N] | 3.51
28 | VVAYLALAALSATISFRWYKSVLQ [I18W] | 4.75
29 | VVAYLALAALSATISFRGYKSVLQ [I18G] | 2.69
30 | VVAYLALAALSATISFREYKSVLQ [I18E] | 3.04
31 | VVAYLALAALSATISFRKYKSVLQ [I18K] | 4.46
32 | VVAYLALAALSATISFRPYKSVLQ [I18P] | 3.69
33 | VVAYLALAALSATISFRTYKSVLQ [I18T] | 1.35
34 | VVAYLALAALSATISFRAYKSVLQ [I18A] | 1.05
35 | VVAYLALAALSATISFRYYKSVLQ [I18Y] | 3.91
36 | VVAYLALAALSATISFRSYKSVLQ [I18S] | 2.78
37 | VVAYLALAALSATMSFRIYKSVLQ [I14M] | 3.4
38 | VVAYLALAALSATNSFRIYKSVLQ [I14N] | 1.02
39 | VVAYLALAALSATRSFRIYKSVLQ [I14R] | 3.01
40 | VVAYLALAALSATASFRIYKSVLQ [I14A] | 2.8
41 | VVAYLALAALSATTSFRIYKSVLQ [I14T] | 2.12
42 | VVAYLALAALSATHSFRIYKSVLQ [I14H] | 2.72
43 | VVAYLALAALSATGSFRIYKSVLQ [I14G] | 2.49
44 | VVAYLALAALSATESFRIYKSVLQ [I14E] | 3.06
45 | VVAYLALAALSATLSFRIYKSVLQ [I14L] | 1.7
46 | VVAYLALAALSATKSFRIYKSVLQ [I14K] | 1.96
47 | VVAYLALAALSATISDRIYKSVLQ [F16D] | 2.94
48 | VVAYLALAALSATISSRIYKSVLQ [F16S] | 2.99

Row | Variant | protein stability index
49 | VVAYLALAALSATISYRIYKSVLQ [F16Y] | 3.52
50 | VVAYLALAALSATISPRIYKSVLQ [F16P] | 4.4
51 | VVAYLALAALSATISQRIYKSVLQ [F16Q] | 3
52 | VVAYLALAALSATISLRIYKSVLQ [F16L] | 2.57
53 | VVAYLALAALSATISARIYKSVLQ [F16A] | 2.88
54 | VVAYLALAALSATISHRIYKSVLQ [F16H] | 3.82
55 | VVAYLALAALSATISVRIYKSVLQ [F16V] | 2.15
56 | VVAYLALAALSATISNRIYKSVLQ [F16N] | 2.28
57 | VVAYLALAALSATISKRIYKSVLQ [F16K] | 1.86
58 | VVAYLALAALSATISERIYKSVLQ [F16E] | 1.76
59 | VVAYLALAALSATITFRIYKSVLQ [S15T] | 2.56
60 | VVAYLALAALSATIFFRIYKSVLQ [S15F] | 1.27
61 | VVAYLALAALSATIPFRIYKSVLQ [S15P] | 2.71
62 | VVAYLALAALSATIQFRIYKSVLQ [S15Q] | 2.82
63 | VVAYLALAALSATICFRIYKSVLQ [S15C] | 2.23
64 | VVAYLALAALSATIHFRIYKSVLQ [S15H] | 3.38
65 | VVAYLALAALSATIIFRIYKSVLQ [S15I] | 1.84
66 | VVAYLALAALSATIAFRIYKSVLQ [S15A] | 1.01
67 | VVAYLALAALSATIGFRIYKSVLQ [S15G] | 2.29
68 | VVAYLALAALSATIVFRIYKSVLQ [S15V] | 4.48
69 | VVAYLALAALSATIMFRIYKSVLQ [S15M] | 1.21
70 | VVAYLALAALSAFISFRIYKSVLQ [T13F] | 2.43
71 | VVAYLALAALSAGISFRIYKSVLQ [T13G] | 1.32
72 | VVAYLALAALSAWISFRIYKSVLQ [T13W] | 2.05

Row | Variant | protein stability index
73 | VVAYLALAALSAHISFRIYKSVLQ [T13H] | 2.61
74 | VVAYLALAALSAKISFRIYKSVLQ [T13K] | 2.77
75 | VVAYLALAALSANISFRIYKSVLQ [T13N] | 2.54
76 | VVAYLALAALSARISFRIYKSVLQ [T13R] | 2.82
77 | VVAYLALAALSAPISFRIYKSVLQ [T13P] | 2.21
78 | VVAYLALAALSAAISFRIYKSVLQ [T13A] | 1.2
79 | VVAYLALAALSAMISFRIYKSVLQ [T13M] | 1.58
80 | VVAYLALAALSAEISFRIYKSVLQ [T13E] | 3.33
81 | VVAYLALAALSACISFRIYKSVLQ [T13C] | 1.87
82 | VVAYLALAALSAIISFRIYKSVLQ [T13I] | 2.86
83 | VVAYLALAALSAYISFRIYKSVLQ [T13Y] | 1.86
84 | VVAYLALAALSAVISFRIYKSVLQ [T13V] | 2.39
85 | VVAYLALAALSHTISFRIYKSVLQ [A12H] | 3.12
86 | VVAYLALAALSQTISFRIYKSVLQ [A12Q] | 2.67
87 | VVAYLALAALSLTISFRIYKSVLQ [A12L] | 3.9
88 | VVAYLALAALSWTISFRIYKSVLQ [A12W] | 3.1
89 | VVAYLALAALSYTISFRIYKSVLQ [A12Y] | 2.39
90 | VVAYLALAALSFTISFRIYKSVLQ [A12F] | 2.85
91 | VVAYLALAALSETISFRIYKSVLQ [A12E] | 2.05
92 | VVAYLALAALSCTISFRIYKSVLQ [A12C] | 2.45
93 | VVAYLALAALSVTISFRIYKSVLQ [A12V] | 3.42
94 | VVAYLALAALSTTISFRIYKSVLQ [A12T] | 1.95
